The values that follow come from paper doi:10.1101/2020.07.23.218024 (bioRxiv, 2020).

The Kd is the constant that tells how readily two partners part at equilibrium. The stoichiometry N is a count of units in the complex or per binding partner.

Assay [1] concerns the target T1, 15N-PEX14(16–80W) (human, UniProt O75381 16-80, 15N-labelled).
T1 chain: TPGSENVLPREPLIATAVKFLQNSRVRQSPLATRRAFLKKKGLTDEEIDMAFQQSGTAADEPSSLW
Put plainly: NMR titration.

Assay [2] has as its target T1, 15N-PEX14(16–80W). The assay is described as follows: NMR titration.
The target in assay [3] is microtubules / purified porcine brain tubulin (porcine). The assay is described as follows: ELISA. For orientation: ELISA stands for enzyme-linked immunosorbent assay.
A further assay concerns the target ß-tubulin(388–444) (human, UniProt P07437 388-444). Put plainly: ITC. For orientation: In ITC the heat of successive injections is recorded.
The target of assay [4] is full-length His6-TEV-PEX5S (human, UniProt P50542-2 1-602). Put plainly: ELISA.

Chain of ß-tubulin(388–444) (P07437 388-444): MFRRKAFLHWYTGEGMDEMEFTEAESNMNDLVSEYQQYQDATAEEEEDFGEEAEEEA

Regarding ALSENWAQEFLAAGDA [WAQEF peptide], in the assay with 15N-PEX14(16–80W) [1], the binding result was “binds”. On to RKAFLHWYTGEGMDE [FLHWY peptide], for which, in the assay with 15N-PEX14(16–80W) [2], the dissociation constant (Kd) was approximately 282000 nM.

B1: GST-PEX14-NTD F52A (domain or fragment)
chain: TPGSENVLPREPLIATAVKFLQNSRVRQSPLATRRAALKKKGLTDEEIDMAFQQSGTAADEPSSL
Take B1: the affinity in assay [3], expressed as Kd, was 39 ± 7.4 nM.

B2: PEX14-NTD (as used in ITC) (domain or fragment)
chain: TPGSENVLPREPLIATAVKFLQNSRVRQSPLATRRAFLKKKGLTDEEIDMAFQQSGTAADEPSSL
On to B2, for which the “stoichiometry N” value with ß-tubulin(388–444) amounted to 2.

B3: GST-PEX14-NTD (domain or fragment)
chain: MASSEQAEQPSQPSSTPGSENVLPREPLIATAVKFLQNSRVRQSPLATRRAFLKKKGLTDEEIDMAFQQSGTAADEPSSL
B3 showed a Kd in assay [4] of approximately 0.5 nM.

B4: His-PEX14-NTD (domain or fragment)
chain: MASSEQAEQPSQPSSTPGSENVLPREPLIATAVKFLQNSRVRQSPLATRRAFLKKKGLTDEEIDMAFQQSGTAADEPSSL
With B4, the Kd in assay [4] is approximately 1.3 nM.

B5: GST-PEX14-NTD K56A (domain or fragment)
chain: MASSEQAEQPSQPSSTPGSENVLPREPLIATAVKFLQNSRVRQSPLATRRAFLKKAGLTDEEIDMAFQQSGTAADEPS
For B5, in assay [3], binding was put at a Kd of 12.5 ± 1.3 nM.

B6: GST-PEX14-NTD F52A/K56A (domain or fragment)
chain: MASSEQAEQPSQPSSTPGSENVLPREPLIATAVKFLQNSRVRQSPLATRRAALKKAGLTDEEIDMAFQQSGTAADEPS
The molecule B6 came in with a Kd in assay [3] of 89 ± 17 nM.

B7: GST-PEX14-NTD K54A (domain or fragment)
chain: MASSEQAEQPSQPSSTPGSENVLPREPLIATAVKFLQNSRVRQSPLATRRAFLAKKGLTDEEIDMAFQQSGTAADEPS
Regarding B7, in assay [3], the Kd is 3.9 ± 0.2 nM. MNDLVSEYQQYQDAT [LVSEY peptide] yielded a Kd with 15N-PEX14(16–80W) [2] of approximately 5000 nM.
